{
  "source": "paper PMC11551737",
  "about": "“Structural and functional insights into the interaction between the bacteriophage T4 DNA processing proteins gp32 and Dda” (Nucleic Acids Research, 2024)",
  "key": {"[1]": {"test_system": "Dda binding to ssDNA (5′F-T30)", "experiment": "Electrophoretic mobility shift assay of Dda binding to 5′F-T30 ssDNA with or without gp32", "design": "species or system bacteriophage T4", "settings": "EMSA, 5 nM 5′F-T30, 100 nM gp32, 10 mM or 150 mM NaCl, 10 min room temperature; three independent sets, Hill fit", "experimental": "Varying amounts of Dda were mixed with 5 nM 5′F-T30 with or without 100 nM gp32 in 25 mM HEPES, pH 7.5, 5 mM MgCl2, 0.1 mM EDTA, 2 mM β-mercaptoethanol, 1 mg/ml bovine serum albumin, 5% glycerol, 0.05% Orange G and either 10 mM NaCl or 150 mM NaCl. Samples were incubated at room temperature in the dark for 10 min before separating on a 6% 100:1 acrylamide:bisacrylamide gel at 4°C. Gels were imaged on an Amersham Typhoon RGB Imager (Cytiva) with excitation using a 488 nm laser and emission measured after a 525BP20 filter. Data were quantified using ImageQuant software (GE Healthcare) and fit to the Hill equation.\nFigure S6. gp32 enhances the affinity of Dda for ssDNA. (A) Electrophoretic mobility shift assays (EMSAs) of 5 nM 5′-F-T30 with increasing concentrations of Dda at 10 mM NaCl and 150 mM NaCl. (B) EMSAs of 5 nM 5′-F-T30 with 100 nM gp32 and increasing concentrations of Dda at 10 mM NaCl and 150 mM NaCl. ( C) The fraction of Dda bound DNA from three independent sets of EMSAs is plotted (average and standard deviation) and fit to the Hill equation. (D) The average and standard deviation of the apparent K d for each condition are given.\n(1 picture or pasted object on this page, not shown here)"}, "wild-type Dda": {"test_system": "wild-type Dda", "experiment": "Dda-dependent DNA unwinding assay with gp32 variants (fluorescein-quenched replication fork substrate, no annealing trap)", "format": "biochemical, bacteriophage T4", "settings": "375 nM gp32 variant, 25 nM wild-type Dda, 25 nM substrate, 2.5 mM ATP, triplicate experiments", "experimental": "A partial duplex substrate mimicking a replication fork was prepared by mixing equimolar concentrations of the following oligonucleotides: loading strand - […]/36-FAM/, displaced strand - […], and leading strand - […] in 10 mM HEPES/1 mM EDTA. The sample was heated to 95°C for 5 min, followed by slowly cooling to room temperature. All concentrations are final, after mixing. ATP (2.5 mM), Mg(OAc)2 (5 mM) and gp32 (375 nM) in assay buffer (25 mM HEPES, pH 7.5, 10 mM KOAc, 0.1 mM EDTA, 2 mM β-mercaptoethanol, 1 mg/ml bovine serum albumin and 4 mM phosphoenol pyruvate) were mixed and added to wells in one row of a black 96-well plate. The reactions were initiated by adding 25 nM substrate, 25 nM wild-type Dda and 5 U/ml pyruvate kinase/lactate dehydrogenase in assay buffer with a multichannel pipette to the entire row simultaneously. Fluorescein fluorescence was measured 8 times per minute in a VICTOR Nivo Multimode Plate Reader (Perkin Elmer) at room temperature with excitation through a 480/30 nm bandpass filter and emission measured after a 530/30 nm bandpass filter."}},
  "note": "“Also recorded” adds a separate entry of the source.",
  "data": [
    {"molecule": "wild-type gp32: bacteriophage T4 single-stranded DNA-binding protein, full length, N-terminal 6xHis-tag (protein, left off: 6xHis, N-terminal, kept) MFKRKSTAELAAQMAKLNGNKGFSSEDKGEWKLKLDNAGNGQAVIRFLPSKNDEQAPFAILVNHGFKKNGKWYIETCSSTHGDYDSCPVCQYISKNDLYNTDNKEYSLVKRKTSYWANILVVKDPAAPENEGKVFKYRFGKKIWDKINAMIAVDVEMGETPVDVTCPWEGANFVLKVKQVSGFSNYDESKFLNQSAIPNIDDESFQKELFEQMVDLSEMTSKDKFKSFEELNTKFGQVMGTAVMGGAAATAAKKADKVADDLDAFNVDDFNTKTEDDFMSSSSGSSSSADDTDLDDLLNDL", "values": [
      {"measurement": "Effect of gp32 on Dda binding to ssDNA (in words)", "setting": "[1]", "value": "increases the affinity of Dda for the ssDNA; also recorded: reduces the fraction of ssDNA bound by Dda"},
      {"measurement": "Rate constant of product formation (single exponential fit)", "setting": "wild-type Dda; 5 mM Mg(OAc)2, pH 7.5, room temperature, fluorescein fluorescence", "value": 0.023, "unit": "s⁻¹"},
      {"measurement": "Amplitude of the product formation curve (fluorescence)", "setting": "wild-type Dda; higher amplitude = more effective prevention of reannealing", "value": "280 000"}
    ]}
  ]
}
